The values that follow come from paper PMC13438699 (Nature Communications, 2026).

Assay [1] addresses A/Texas/37/2024 (H5N1) HA (Influenza A virus A/Texas/37/2024 (H5N1), strain). Description: BLI. The conditions noted are these: both partners purified.
Assay [2] addresses T1, A/Solomon Islands/3/2006 (H1N1) HA (influenza A virus A/Solomon …). As to the kind of experiment: cryo-EM structure. To be noted: both partners purified.
Assay [3] has as its target T2, A/Michigan/45/2015 (H1N1) HA (Influenza A virus A/Michigan/45/2015 …, UniProt A0A1J0CXU0, strain). Description: BLI. The conditions noted are these: both partners purified.
For assay [4], the target named is T3, A/Taiwan/01/1986 (H1N1) HA (Influenza A virus A/Taiwan/1/1986 (H1N1), UniProt F5CU03, strain).
T3 construct: source: bought: Sino Biological
As to the kind of experiment: ELISA. The conditions noted are these: one partner purified. (ELISA stands for enzyme-linked immunosorbent assay.)

In assay [5] the target is T4, A/California/07/2009 (H1N1) HA (Influenza A virus A/California/07/2009 …, UniProt C3W5X2, strain).
T4 construct: source: bought: BEI Resources (NR-42635)
Description: ELISA. The conditions noted are these: one partner purified.

Assay [6] deals with T5, A/USSR/90/1977 (H1N1) HA (Influenza A virus A/USSR/90/1977 (H1N1), UniProt P03453, strain).
T5 construct: source: bought: Sino Biological
As to the kind of experiment: ELISA. The conditions noted are these: one partner purified.

In assay [7] the target is T1, A/Solomon Islands/3/2006 (H1N1) HA. As to the kind of experiment: ELISA. The conditions noted are these: one partner purified.
The target in assay [8] is A/Beijing/262/1995 (H1N1) HA (Influenza A virus A/Beijing/262/1995 …, UniProt B4UPF7, strain). Description: ELISA. The conditions noted are these: one partner purified.
Assay [9] concerns the target T2, A/Michigan/45/2015 (H1N1) HA. As to the kind of experiment: ELISA. To be noted: one partner purified.
In assay [10] the target is T6, A/Japan/305/1957 (H2N2) HA (Influenza A virus A/Japan/305/1957 …, UniProt Q0A2X3, strain).
T6 construct: source: Sf9, baculovirus, purified from supernatant (Ni Sepharose Excel, SEC)
Description: ELISA. The conditions noted are these: one partner purified.

As a reminder, the Kd is the equilibrium constant for the complex coming apart.

Where only a bound is given, the exact number is not on record here.

B1: HB31 wild type (WT) Fab (Fab, V domains shown)
VH: EVQLLESGGGLVQPGGSLRLSCTVSGFTSSNYDMSWVRQAPGKGLEWVSGISGTGRDTYYADSVKGRFTISRDNSKNTLSLQMNSLRADDTAVYFCARDRPVLRYFDWQPYGLDVWGKGTTVTVSS
VL: QSALTQPPSASGSPGQSVTISCTGTSSDVGGYNYVSWYQQYPSKAPKLMIYEVSKRPSGVPDRFSGSKSGNTASLTVSGLQAEDEADYYCNSYAGSNLYVFGTGTKVTVL
notes: also called HB31 WT Fab; HB31 Fab; source: Expi293F, transiently co-transfected, purified (CaptureSelect CH1-XL)
Regarding B1, binding in [1] was characterised by a dissociation constant (Kd) of 4.5 nM.

B2: HB34 Fab (Fab, V domains shown)
VH: EVQLLESGGGLVQPGGSLRLSCTVSGFTSSNYDMSWVRQAPGKGLEWVSGISGTGRDTYYADSVKGRFTISRDNSKNTLSLQMNSLRADDTAVYFCARDRPVLRYFDWQPYGLDVWGKGTTVTVSS
VL: QSALTQPASVSGSPGQSITISCTGTSSDVGSYNLVSWYQQHPGKAPKLMIYEGSQRPSGVSNRFSGSKSGNTASLTISGLQAEDEADYYCCSYASSTSYVFGTGTKVTVL
For the molecule B2, the binding result in assay [2] and in [3] was “binds” throughout.

B3: HB31 (IgG format) (antibody, V domains shown)
VH: EVQLLESGGGLVQPGGSLRLSCTVSGFTSSNYDMSWVRQAPGKGLEWVSGISGTGRDTYYADSVKGRFTISRDNSKNTLSLQMNSLRADDTAVYFCARDRPVLRYFDWQPYGLDVWGKGTTVTVSS
VL: QSALTQPPSASGSPGQSVTISCTGTSSDVGGYNYVSWYQQYPSKAPKLMIYEVSKRPSGVPDRFSGSKSGNTASLTVSGLQAEDEADYYCNSYAGSNLYVFGTGTKVTVL
notes: also called HB31 wild type; WT
B3: the binding result in assay [4], in [5], in [6] and in [7] was “binds” throughout.

B4: HB31 wild type (WT) IgG (antibody, V domains shown)
VH: EVQLLESGGGLVQPGGSLRLSCTVSGFTSSNYDMSWVRQAPGKGLEWVSGISGTGRDTYYADSVKGRFTISRDNSKNTLSLQMNSLRADDTAVYFCARDRPVLRYFDWQPYGLDVWGKGTTVTVSS
VL: QSALTQPPSASGSPGQSVTISCTGTSSDVGGYNYVSWYQQYPSKAPKLMIYEVSKRPSGVPDRFSGSKSGNTASLTVSGLQAEDEADYYCNSYAGSNLYVFGTGTKVTVL
notes: copies: 2 + 2
Turning to B4, the affinity in [1], expressed as Kd, was 1.6 nM.

B5: HB31 Fab (Fab, V domains shown)
VH: EVQLLESGGGLVQPGGSLRLSCTVSGFTSSNYDMSWVRQAPGKGLEWVSGISGTGRDTYYADSVKGRFTISRDNSKNTLSLQMNSLRADDTAVYFCARDRPVLRYFDWQPYGLDVWGKGTTVTVSS
VL: QSALTQPPSASGSPGQSVTISCTGTSSDVGGYNYVSWYQQYPSKAPKLMIYEVSKRPSGVPDRFSGSKSGNTASLTVSGLQAEDEADYYCNSYAGSNLYVFGTGTKVTVL
Consider B5, for which the binding result in assay [2] and in assay [3] was “binds” each time.

B6: HB34 (IgG format) (antibody, V domains shown)
VH: EVQLLESGGGLVQPGGSLRLSCTVSGFTSSNYDMSWVRQAPGKGLEWVSGISGTGRDTYYADSVKGRFTISRDNSKNTLSLQMNSLRADDTAVYFCARDRPVLRYFDWQPYGLDVWGKGTTVTVSS
VL: QSALTQPASVSGSPGQSITISCTGTSSDVGSYNLVSWYQQHPGKAPKLMIYEGSQRPSGVSNRFSGSKSGNTASLTISGLQAEDEADYYCCSYASSTSYVFGTGTKVTVL
As to B6, the binding result in [4], in assay [8], in assay [5], in [6], in assay [7] and in assay [9] was “binds” each time.

B7: CR9114 Fab (Fab, V domains shown)
VH: QVQLVQSGAEVKKPGSSVKVSCKSSGGTSNNYAISWVRQAPGQGLDWMGGISPIFGSTAYAQKFQGRVTISADIFSNTAYMELNSLTSEDTAVYFCARHGNYYYYSGMDVWGQGTTVTVSS
VL: QSALTQPPAVSGTPGQRVTISCSGSDSNIGRRSVNWYQQFPGTAPKLLIYSNDQRPSVVPDRFSGSKSGTSASLAISGLQSEDEAEYYCAAWDDSLKGAVFGGGTQLTVL
notes: source: Expi293F, transient co-transfection, purified (CaptureSelect CH1-XL)
As for B7, in [3], the binding result is given as “binds”.

B8: HB315 (IgG format) (antibody, V domains shown)
VH: EVQLLESGGGLAQPGGSLRLSCTASGFTFSNFAMNWVRQAPGKGLEWVSFINSGSGSTYYADSVKGRFTISRDNSENTLFLQMNSLRAEDTAVYYCAKDLGRAIFGLVIPEGAFDIWGQGTMVTVSS
VL: EIVMTQSPSSLSASVGDRVTITCRASQSINNHLNWYQQKPGKAPKLLIYAASSLQSGVPSRFSGSGSGTDFTLTISSLQPADFATYHCQQSYGVPLTFGQGTKVEIK
Regarding B8, the binding result in assay [4], in assay [8], in assay [5], in assay [6], in [7] and in assay [9] was “binds” each time. In addition, the “fold stronger binding activity than HB31 and HB34 (ELISA)” value in [10] was at least 4 fold.

B9: HB315 Fab (Fab, V domains shown)
VH: EVQLLESGGGLAQPGGSLRLSCTASGFTFSNFAMNWVRQAPGKGLEWVSFINSGSGSTYYADSVKGRFTISRDNSENTLFLQMNSLRAEDTAVYYCAKDLGRAIFGLVIPEGAFDIWGQGTMVTVSS
VL: EIVMTQSPSSLSASVGDRVTITCRASQSINNHLNWYQQKPGKAPKLLIYAASSLQSGVPSRFSGSGSGTDFTLTISSLQPADFATYHCQQSYGVPLTFGQGTKVEIK
On to B9, for which the binding result in assay [2] and in [3] was “binds” throughout.

B10: 047-09 4F04 Fab (Fab, V domains shown)
VH: EVQLVESGGGLVQPGGSLRLSCAASGFTFNTYNMNWVRQAPGKGLEWVSYISSSSLSRYYADSVKGRFTISRDNAKNSLFLQMNSLRAEDTAVYYCARGAQAGYSSFFPPTTFWGQGTLVTVSS
VL: EIVMTQSPATLSVSPGEGVTLSCRASQSVSSNLAWYQQKPGQAPRLLIYGASTRATGIPARFSGSGSGTEFTLTISSLQSEDFAVYYCQQYYNWPPLTFGGGTKVEIK
With B10, in assay [3], the binding result is reported as “binds”.
